# Measured values as given in patent publication US20200199204A1.
# Tests used:
# Experiment in all cases: cell-based or functional assay
# [1] = target: HIV-1 Env of CM244.ec1 (HIV-1)
# [2] = target: HIV-1 Env of Q259.d2.17 (HIV-1)
# [3] = target: HIV-1 Env of 3016.V5.c36 (HIV-1)
# [4] = target: HIV-1 Env of ZM135.10a (HIV-1)
# [5] = target: HIV-1 Env of DU156.12 (HIV-1)
# [6] = target: HIV-1 Env of ZM214.15 (HIV-1)
# [7] = target: HIV-1 Env of DU422.01 (HIV-1)
# [8] = target: HIV-1 Env of Q842.d12 (HIV-1)
# [9] = target: HIV-1 Env of CAP244.D3 (HIV-1)
# [10] = target: HIV-1 Env of CAP210.E8 (HIV-1)
# [11] = target: HIV-1 Env of ZM197.7 (HIV-1)
# [12] = target: HIV-1 Env of SC422.8 (HIV-1)
# [13] = target: HIV-1 Env of 0260.v5.c36 (HIV-1)
# [14] = target: HIV-1 Env of CAAN.A2 (HIV-1)
# [15] = target: HIV-1 Env of AC10.29 (HIV-1)
# [16] = target: HIV-1 Env of ZM109.4 (HIV-1)
# [17] = target: HIV-1 Env of 6405.v4.c34 (HIV-1)
# [18] = target: HIV-1 Env of TH976.17 (HIV-1)
# [19] = target: HIV-1 Env of THRO.18 (HIV-1)
# [20] = target: HIV-1 Env of Q461.e2 (HIV-1)
# [21] = target: HIV-1 Env of ZM249.1 (HIV-1)
# [22] = target: HIV-1 Env of 96ZM651.02 (HIV-1)
# [23] = target: HIV-1 Env of CAP256.PI (HIV-1)
# [24] = target: HIV-1 Env of Q769.d22 (HIV-1)
# [25] = target: HIV-1 Env of 6535.3 (HIV-1)
# [26] = target: HIV-1 Env of 191821.E6.1 (HIV-1)
# [27] = target: HIV-1 Env of TRJO.58 (HIV-1)
# [28] = target: HIV-1 Env of Q23.17 (HIV-1)
# [29] = target: HIV-1 Env of TRO.11 (HIV-1)
# [30] = target: HIV-1 Env of PVO.04 (HIV-1)
# [31] = target: HIV-1 Env of MB539.2B7 (HIV-1)
# [32] = target: HIV-1 Env of RW020.2 (HIV-1)
# [33] = target: HIV-1 Env of ZM233.6 (HIV-1)
# [34] = target: HIV-1 Env of BG505.w6m (HIV-1)
# [35] = target: HIV-1 Env of DU172.17 (HIV-1)
# [36] = target: HIV-1 Env of KER2018.11 (HIV-1)
# [37] = target: HIV-1 Env of QH0692.42 (HIV-1)
# [38] = target: HIV-1 Env of C1080.c3 (HIV-1)
# [39] = target: HIV-1 Env of RHPA.7 (HIV-1)
# [40] = target: HIV-1 Env of WITO.33 (HIV-1)
# [41] = target: HIV-1 Env of MB201 (HIV-1)
# [42] = target: HIV-1 Env of UG037.8 (HIV-1)
# [43] = target: HIV-1 Env of ZM53.12 (HIV-1)
# [44] = target: HIV-1 Env of REJO.67 (HIV-1)
# [45] = target: HIV-1 Env of CNE3 (HIV-1)
# [46] = target: HIV-1 Env of KER2008.12 (HIV-1)
# [47] = target: HIV-1 Env of CAP256.SU (HIV-1)
# [48] = target: HIV-1 Env of Q168.a2 (HIV-1)
# [49] = target: HIV-1 Env of CAP45.G3 (HIV-1)
substance,measurement,setting,value
CAP256-VRC26.19 (antibody),IC50,[1],0.024 µg/mL
same,IC50,[2],2.16 µg/mL
same,IC50,[3],0.039 µg/mL
same,IC50,[4],> 50 µg/mL
same,IC50,[5],1.34 µg/mL
same,IC50,[6],> 50 µg/mL
same,IC50,[7],0.057 µg/mL
same,IC50,[8],0.16 µg/mL
same,IC50,[9],> 50 µg/mL
same,IC50,[10],0.025 µg/mL
same,IC50,[11],0.135 µg/mL
same,IC50,[12],> 50 µg/mL
same,IC50,[13],> 50 µg/mL
same,IC50,[14],> 50 µg/mL
same,IC50,[15],2.98 µg/mL
same,IC50,[16],2.82 µg/mL
same,IC50,[17],> 50 µg/mL
same,"IC50 (neutralization, TZM-bl)",[18],> 50 µg/mL
same,IC50,[19],> 50 µg/mL
same,IC50,[20],15.6 µg/mL
same,IC50,[21],0.076 µg/mL
same,IC50,[22],> 50 µg/mL
same,IC50,[23],> 50 µg/mL
same,IC50,[24],> 50 µg/mL
same,IC50,[25],> 50 µg/mL
same,IC50,[26],29.2 µg/mL
same,IC50,[27],> 50 µg/mL
same,IC50,[28],0.233 µg/mL
same,IC50,[29],> 50 µg/mL
same,IC50,[30],1.1 µg/mL
same,IC50,[31],0.431 µg/mL
same,IC50,[32],> 50 µg/mL
same,IC50,[33],0.009 µg/mL
same,IC50,[34],0.13 µg/mL
same,IC50,[35],> 50 µg/mL
same,IC50,[36],0.005 µg/mL
same,IC50,[37],> 50 µg/mL
same,IC50,[38],14.5 µg/mL
same,IC50,[39],> 50 µg/mL
same,IC50,[40],> 50 µg/mL
same,IC50,[41],> 50 µg/mL
same,IC50,[42],> 50 µg/mL
same,IC50,[43],0.02 µg/mL
same,IC50,[44],> 50 µg/mL
same,"IC50 (neutralization, TZM-bl)",[45],> 50 µg/mL
same,IC50,[46],> 50 µg/mL
same,IC50,[47],0.015 µg/mL
same,IC50,[48],7.04 µg/mL
same,IC50,[49],> 50 µg/mL
CAP256-VRC26.20 (antibody),IC50,[1],> 50 µg/mL
same,IC50,[2],> 50 µg/mL
same,IC50,[3],> 50 µg/mL
same,IC50,[4],> 50 µg/mL
same,IC50,[5],> 50 µg/mL
same,IC50,[6],> 50 µg/mL
same,IC50,[7],> 50 µg/mL
same,IC50,[8],> 50 µg/mL
same,IC50,[9],> 50 µg/mL
same,IC50,[10],> 50 µg/mL
same,IC50,[11],> 50 µg/mL
same,IC50,[12],> 50 µg/mL
same,IC50,[13],> 50 µg/mL
same,IC50,[14],> 50 µg/mL
same,IC50,[15],> 50 µg/mL
same,IC50,[16],> 50 µg/mL
same,IC50,[17],> 50 µg/mL
same,"IC50 (neutralization, TZM-bl)",[18],> 50 µg/mL
same,IC50,[19],> 50 µg/mL
same,IC50,[20],> 50 µg/mL
same,IC50,[21],> 50 µg/mL
same,IC50,[22],> 50 µg/mL
same,IC50,[23],> 50 µg/mL
same,IC50,[24],> 50 µg/mL
same,IC50,[25],> 50 µg/mL
same,IC50,[26],> 50 µg/mL
same,IC50,[27],> 50 µg/mL
same,IC50,[28],> 50 µg/mL
same,IC50,[29],> 50 µg/mL
same,IC50,[30],> 50 µg/mL
same,IC50,[31],> 50 µg/mL
same,IC50,[32],> 50 µg/mL
same,IC50,[33],> 50 µg/mL
same,IC50,[34],> 50 µg/mL
same,IC50,[35],> 50 µg/mL
same,IC50,[36],> 50 µg/mL
same,IC50,[37],> 50 µg/mL
same,IC50,[38],> 50 µg/mL
same,IC50,[39],> 50 µg/mL
same,IC50,[40],> 50 µg/mL
same,IC50,[41],> 50 µg/mL
same,IC50,[42],> 50 µg/mL
same,IC50,[43],1.87 µg/mL
same,IC50,[44],> 50 µg/mL
same,"IC50 (neutralization, TZM-bl)",[45],> 50 µg/mL
same,IC50,[46],> 50 µg/mL
same,IC50,[47],> 50 µg/mL
same,IC50,[48],> 50 µg/mL
same,IC50,[49],> 50 µg/mL
CAP256-VRC26.21 (antibody),IC50,[1],> 50 µg/mL
same,IC50,[2],25.4 µg/mL
same,IC50,[3],> 50 µg/mL
same,IC50,[4],> 50 µg/mL
same,IC50,[5],> 50 µg/mL
same,IC50,[6],> 50 µg/mL
same,IC50,[7],1.1 µg/mL
same,IC50,[8],> 50 µg/mL
same,IC50,[9],> 50 µg/mL
same,IC50,[10],0.005 µg/mL
same,IC50,[11],> 50 µg/mL
same,IC50,[12],> 50 µg/mL
same,IC50,[13],> 50 µg/mL
same,IC50,[14],> 50 µg/mL
same,IC50,[15],> 50 µg/mL
same,IC50,[16],> 50 µg/mL
same,IC50,[17],> 50 µg/mL
same,"IC50 (neutralization, TZM-bl)",[18],> 50 µg/mL
same,IC50,[19],> 50 µg/mL
same,IC50,[20],> 50 µg/mL
same,IC50,[21],> 50 µg/mL
same,IC50,[22],> 50 µg/mL
same,IC50,[23],> 50 µg/mL
same,IC50,[24],> 50 µg/mL
same,IC50,[25],> 50 µg/mL
same,IC50,[26],> 50 µg/mL
same,IC50,[27],> 50 µg/mL
same,IC50,[28],> 50 µg/mL
same,IC50,[29],> 50 µg/mL
same,IC50,[30],> 50 µg/mL
same,IC50,[31],> 50 µg/mL
same,IC50,[32],> 50 µg/mL
same,IC50,[33],26.5 µg/mL
same,IC50,[34],> 50 µg/mL
same,IC50,[35],> 50 µg/mL
same,IC50,[36],0.06 µg/mL
same,IC50,[37],> 50 µg/mL
same,IC50,[38],> 50 µg/mL
same,IC50,[39],> 50 µg/mL
same,IC50,[40],> 50 µg/mL
same,IC50,[41],> 50 µg/mL
same,IC50,[42],> 50 µg/mL
same,IC50,[43],0.003 µg/mL
same,IC50,[44],> 50 µg/mL
same,"IC50 (neutralization, TZM-bl)",[45],> 50 µg/mL
same,IC50,[46],> 50 µg/mL
same,IC50,[47],0.002 µg/mL
same,IC50,[48],> 50 µg/mL
same,IC50,[49],> 50 µg/mL
